Usually Kd stands for the constant that tells how readily two partners part at equilibrium.

* marks the point of attachment. 5FAM = O=C1OC2(c3ccc(O)cc3Oc3cc(O)ccc32)c2ccc(C(=O)*)cc21; Ahx = NCCCCCC(=O)O

For the experiment, the target named is T1, N-terminal His-tag PCNA (recombinant (His)6-PCNA fusion protein; Proliferating Cell Nuclear Antigen) (Homo sapiens (Human), UniProt P12004 1-261).
T1 construct: Expressed in E. coli BL21 (DE3) from vector pEV-L8, which carries an N-terminal His-tag and a TEV protease site; No tag cleavage is described; also called His-tagged PCNA; recombinant PCNA
Nature of the experiment: fluorescence polarization; fixed FAM-PL (5 nM) titrated with two-fold increasing recombinant His-tagged PCNA. From the text:
[a]N-substituted side chains listed from N-terminus to most C-terminal [b]as determined by high resolution electrospray ionization or MALDI-TOF [c]based on dry mass recovery after HPLC purification After synthesis and purification, peptoids were screened in a fluorescence polarization (FP) assay to find ligands that disrupted the interaction between His-tagged PCNA and fluorescein-labeled Pogo Ligase peptide (FAM-PL) (Kontopidis, G., et al. Proc. Natl. Acad. Sci. U.S.A. 2005, 102 (6), 1871-1876). In the design of the assay, conditions were adopted from Pedley et al., 2016, to improve the dynamic range between bound and unbound FAM-PL. While an acceptable Z-score was determined using the original 10 nM peptide and 100 nM PCNA (FIG. 4), an improved dynamic range was established by adjusting the ligand and receptor concentrations. […]
Increasing amounts of recombinant (His)_6-PCNA protein (SEQ ID NO: 3) were prepared in FP binding buffer (25 mM HEPES at pH 7.4, 10% glycerol, 0.01% Triton X-100), with an 11-step 2-fold dilution series, and a top concentration of 30 μM. […] Fluorescence polarization and resultant anisotropy were measured on a BioTek Synergy 4 Multi-Detection Microplate Reader using an excitation filter of 485 nm and an emission filter of 530 nm, each with a 20 nm band-pass.
A general note: In fluorescence polarisation assays a small probe gives low polarisation when free and higher when bound to something large.

T1 sequence (P12004 other isoform, or with tags, fused parts or gaps limits assumed): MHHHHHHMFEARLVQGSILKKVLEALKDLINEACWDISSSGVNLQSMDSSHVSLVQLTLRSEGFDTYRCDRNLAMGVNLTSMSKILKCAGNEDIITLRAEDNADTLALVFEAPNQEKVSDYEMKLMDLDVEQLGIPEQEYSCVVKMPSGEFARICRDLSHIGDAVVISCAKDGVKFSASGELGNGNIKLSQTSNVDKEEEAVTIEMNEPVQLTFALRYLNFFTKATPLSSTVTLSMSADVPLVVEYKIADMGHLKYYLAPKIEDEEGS

B1: 5-FAM-labeled POGO ligase peptide (FAM-PL) (peptide)
peptide: {5FAM-Ahx}-SAVLQKKITDYFHPKK-NH2
notes: also called fluorescein-labeled Pogo Ligase peptide; PL peptide
With B1, the Kd came out at 0.107 µM.
